Patent US20210393776A1 (FABION PHARMACEUTICALS, published 2021)
Numbering of substitutions follows the chain as printed. Like-named read-outs stand apart in the source and are kept apart here.

B1: hu-1F3.3 Fab (Fab, V domains shown)
VH: EVQLVESGGGLVQPGGSLRLSCAASGFTFSTYAMNWVRQAPGKGLEWVARIRSKYNNYATYYADSVKDRFTISRDDSKNTLYLQMNSLRAEDTAVYYCARHGNFGNSYVSWFAYWGQGTMVTVSS
VL: QAVVTQEPSLTVSPGGTVTLTCRSSTGAVTTSNYANWVQQKPGQAPRGLIGGTNKRAPGTPARFSGSLLGGKAALTLSGVQPEDEAEYYCALWYSNLWVFGGGTKLTVL
notes: His6 tag at the C-terminus of the Fd
B2: hu-1F3.8 Fab (Fab, V domains shown)
VH: B1 VH
VL: QAVVTQEPSLTVSPGGTVTLTCRSSTGAVTTSNYANWFQQKPGQAPRGLIGGTNKRAPGTPARFSGSLLGGKAALTLSGVQPEDEAEYYCALWYSNLWVFGGGTKLTVLG
notes: as for B1
B3: hu-1F3.2 Fab (Fab, V domains shown)
VH: B1 VH with S30N, A49S
VL: B1 VL
notes: as for B1
B4: hu-1F3.6 Fab (Fab, V domains shown)
VH: B1 VH with A49S
VL: B2 VL
notes: as for B1
B5: hu-1F3.7 Fab (Fab, V domains shown)
VH: B1 VH with S30N, A49S
VL: B2 VL
notes: as for B1
B6: hu-1F3.5 Fab (Fab, V domains shown)
VH: B1 VH with S30N, A99V
VL: B1 VL
notes: His6 tag at the C-terminus of the Fd; also called huIF3.5
B7: hu-1F3.4 Fab (Fab, V domains shown)
VH: B1 VH with A99V
VL: B1 VL
notes: as for B1
B8: hu-1F3.10 Fab (Fab, V domains shown)
VH: B1 VH with S30N, A99V
VL: B2 VL
notes: as for B1
B9: hu-1F3.9 Fab (Fab, V domains shown)
VH: B1 VH with A99V
VL: B2 VL
notes: as for B1
B10: hu-1F3.1 Fab (Fab, V domains shown)
VH: B1 VH with A49S
VL: B1 VL
notes: His6 tag at the C-terminus of the Fd; No entry is named hu-1F3-1LC; also called hu-1F3 Fab; humanized anti CD3 antibody Fab, hu-1F3

What was measured:
[1] = target: T1, recombinant human CD3epsilon/delta Fc(K-H) heterodimer (human); test: ELISA, immobilised antigen, His6-tagged Fab, anti-His6 antibody HRP conjugate, ABTS, OD405
T1 construct: also called human CD3epsilon/delta knob and hole Fc heterodimer; copies: 1 + 1
Experimental: (§1) Humanized Fab proteins are his6 tagged at the C-terminus of Fd and the Fabs bound to the 96-well plate immobilized antigens were detected using anti his6 tag mouse antibody conjugated with HRP. ABTS was used as substrate and absorptions were measured at 405 nm.
(§2) MAXISORP® plates were used for ELISA binding assays. 50 μl of 1 μg/ml of antigens in 50 mM NaHCO₃were used to coat the plates at 4° C. overnight followed by incubation with 200 μl of 5% dry milk/TBS-0.05% TWEEN®-20 (i.e., polysorbate 20) (MTBS-T)/well. Antibodies were usually diluted in 5% MTBS-T and transferred to antigen coated plates and incubated for 1 hr with gentle shaking at room temperature. Bound antibodies were detected either by streptavidin-HRP (for detecting biotinylated antibodies) or anti-his tag-HRP conjugate (for his tagged antibodies). ABTS™ (i.e., 2,2′-azino-bis(3-ethylbenzothiazoline-6-sulphonic acid) solution in 50 mM citrate buffer was used for detection with OD405 measurement on using a microplate reader (Biotek).

[2] = target: T2, human CD3epsilonAA1-27.Fc (human); test: as above
T2 construct: also called recombinant human CD3epsilon N-terminal peptide (aa1-27.Fc fusion); CD3epsilon N-terminal amino acid 1-27 peptide Fc fusion
Experimental: as §1, §2

[3] = target: T3, recombinant cyno CD3epsilon/delta Fc(K-H) heterodimer (cynomolgus); test: ELISA, immobilised antigen, His6-tagged Fab, anti-His6 antibody HRP conjugate, ABTS, OD405 [continued) E]
T3 construct: also called cynomolgus CD3epsilon/delta; recombinant cyno CD3epsilon/delta heterodimeric Fc protein; copies: 1 + 1
Experimental: as §1, §2

[4] = target: T1, recombinant human CD3epsilon/delta …; test: ELISA, immobilised antigen, His6-tagged Fab, anti-His6 antibody HRP conjugate, ABTS, OD405; remark: listed apart in the source
Experimental: as §1, §2

[5] = target: T2, human CD3epsilonAA1-27.Fc; test: as above; remark: listed apart in the source
Experimental: as §1, §2

[6] = target: T3, recombinant cyno CD3epsilon/delta …; test: ELISA, immobilised antigen, His6-tagged Fab, anti-His6 antibody HRP conjugate, ABTS, OD405 [continued) F]
Experimental: as §1, §2

[7] = target: T4, full length human EpCAM on CHO cells (human, UniProt P16422 24-314); test: flow cytometry on CHO cells stably expressing full length human EpCAM, PE detection
T4 construct: CHO cells stably expressing full length human EpCAM; also called hu-EpCAM-FL; human EpCAM-FL
T4 sequence: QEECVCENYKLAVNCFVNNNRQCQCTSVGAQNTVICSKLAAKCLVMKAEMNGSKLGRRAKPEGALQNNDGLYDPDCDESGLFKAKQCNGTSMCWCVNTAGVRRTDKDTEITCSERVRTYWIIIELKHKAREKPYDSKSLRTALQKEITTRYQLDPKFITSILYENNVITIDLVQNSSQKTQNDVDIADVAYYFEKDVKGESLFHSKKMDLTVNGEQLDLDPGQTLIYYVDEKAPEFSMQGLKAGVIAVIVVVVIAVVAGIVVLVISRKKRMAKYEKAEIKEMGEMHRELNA
Experimental: In general, cells were blocked in 1% BSA/PBS for 1 hr at 4 C and antibodies of interest were diluted into 1% BSA/PBS were added to blocked cells for incubation at 4° C. for 1 hr. after one wash with 1% BSA/PBS, staining procedures vary depending on the availability of antibodies or fluorescent antibody conjugate. In some case, direct fluorescence conjugates were used. In other cases, anti affinity tag antibodies (secondary antibody) were used to incubate with the cells followed by anti-species antibody conjugated with a particular fluorophore. In some other experiments, antibody (or other affinity reagent such as streptavidin) with fluorescence conjugate was used directly as secondary antibody (secondary reagent).

T1 sequence (chain, as listed by the source mutant limits assumed, chain 1 of 2): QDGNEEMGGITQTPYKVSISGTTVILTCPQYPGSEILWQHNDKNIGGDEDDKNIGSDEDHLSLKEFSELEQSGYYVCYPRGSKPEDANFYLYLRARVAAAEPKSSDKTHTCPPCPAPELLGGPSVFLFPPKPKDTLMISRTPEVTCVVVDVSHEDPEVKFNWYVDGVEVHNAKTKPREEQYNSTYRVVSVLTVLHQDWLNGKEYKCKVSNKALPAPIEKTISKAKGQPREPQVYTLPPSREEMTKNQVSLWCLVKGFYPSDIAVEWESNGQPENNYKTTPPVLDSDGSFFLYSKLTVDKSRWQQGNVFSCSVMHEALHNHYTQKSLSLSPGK
T1 sequence (chain, as listed by the source mutant limits assumed, chain 2 of 2): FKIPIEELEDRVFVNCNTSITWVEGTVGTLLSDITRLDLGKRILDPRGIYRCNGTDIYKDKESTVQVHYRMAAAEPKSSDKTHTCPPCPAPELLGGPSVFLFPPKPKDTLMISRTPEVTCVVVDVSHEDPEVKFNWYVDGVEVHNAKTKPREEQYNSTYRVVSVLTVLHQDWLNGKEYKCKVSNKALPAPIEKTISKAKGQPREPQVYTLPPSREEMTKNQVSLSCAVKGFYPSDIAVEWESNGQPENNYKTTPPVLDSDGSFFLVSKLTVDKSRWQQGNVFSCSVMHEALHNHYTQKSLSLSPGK

Binder	binding result [1]	binding result [2]	binding result [3]	binding result [4]	binding result [5]	binding result [6]	also measured
B1	binds	binds	binds				
B2				binds	binds	binds	
B3	binds	binds	binds				
B4				binds	binds	binds	
B5				binds	binds	binds	
B6							EC50 (read off the curve) [1]: ~3 nM; EC50 (read off the curve) [2]: ~2 nM; EC50 (read off the curve) [3]: ~2 nM
B7		binds					
B8				binds	binds	binds	
B9				binds	binds	binds	
B10	binds	binds	binds				binding result [7]: no binding
